Measurements: IntAct's records for PubMed 20890305

Biological target: MAP3K11 (UniProt Q16584)
Sequence (Q16584 whole entry, looked up): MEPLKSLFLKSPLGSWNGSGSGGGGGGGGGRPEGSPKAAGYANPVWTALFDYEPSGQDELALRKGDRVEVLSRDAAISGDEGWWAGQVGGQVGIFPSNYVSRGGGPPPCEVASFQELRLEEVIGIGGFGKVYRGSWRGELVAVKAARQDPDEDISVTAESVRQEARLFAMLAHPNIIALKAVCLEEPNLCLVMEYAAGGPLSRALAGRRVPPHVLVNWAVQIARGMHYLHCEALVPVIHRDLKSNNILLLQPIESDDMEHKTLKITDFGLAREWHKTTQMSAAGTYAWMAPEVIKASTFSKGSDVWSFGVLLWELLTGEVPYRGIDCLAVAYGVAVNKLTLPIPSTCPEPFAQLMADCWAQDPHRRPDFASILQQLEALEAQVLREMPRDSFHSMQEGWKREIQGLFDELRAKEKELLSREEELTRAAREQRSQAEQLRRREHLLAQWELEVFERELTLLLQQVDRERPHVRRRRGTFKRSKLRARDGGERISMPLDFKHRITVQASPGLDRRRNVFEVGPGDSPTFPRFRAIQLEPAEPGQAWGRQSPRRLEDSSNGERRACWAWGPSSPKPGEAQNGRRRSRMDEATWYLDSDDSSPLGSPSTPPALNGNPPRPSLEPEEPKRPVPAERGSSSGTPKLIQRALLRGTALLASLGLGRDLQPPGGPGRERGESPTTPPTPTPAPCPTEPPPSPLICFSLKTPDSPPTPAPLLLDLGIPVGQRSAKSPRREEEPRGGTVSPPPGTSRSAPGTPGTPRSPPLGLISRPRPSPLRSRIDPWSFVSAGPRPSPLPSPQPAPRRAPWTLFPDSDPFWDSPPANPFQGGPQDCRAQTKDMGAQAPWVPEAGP

Chain of Cell division control protein 42 homolog (Homo sapiens), P60953 T17N (P60953 whole entry T17N): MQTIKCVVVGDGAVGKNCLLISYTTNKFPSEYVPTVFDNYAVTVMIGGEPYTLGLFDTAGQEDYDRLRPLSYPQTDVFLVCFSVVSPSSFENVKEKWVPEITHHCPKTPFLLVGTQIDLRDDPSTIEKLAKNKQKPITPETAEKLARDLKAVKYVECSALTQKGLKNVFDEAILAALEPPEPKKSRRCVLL
Chain of Cell division control protein 42 homolog (Homo sapiens), P60953 G12V (P60953 whole entry G12V): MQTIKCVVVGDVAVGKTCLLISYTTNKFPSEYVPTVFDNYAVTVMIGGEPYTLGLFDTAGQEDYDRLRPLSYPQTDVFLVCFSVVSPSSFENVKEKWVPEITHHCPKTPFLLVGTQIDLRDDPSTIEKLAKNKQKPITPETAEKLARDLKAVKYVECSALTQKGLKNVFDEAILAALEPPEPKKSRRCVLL

effect of a mutation on the interaction | Substance
decreasing interaction | Cell division control protein 42 homolog (Homo sapiens), P60953 G12V
disrupting interaction | Cell division control protein 42 homolog (Homo sapiens), P60953 T17N
